The results in this text go back to US20220144922A1 (Adimab, published 2022).

Substitutions are numbered along the chain they refer to. Where only a bound is given, the exact number is not on record here.

First the molecules themselves.
B1: ADI-15563 (antibody, V domains shown)
VH: EVQLVESGGGLVQPGRSLRLSCAASGFTFDDYAMHWVRQAPGKGLEWVSGISWNSGIVKYADSVKGRFTISRDNAKNSLYLQMNSLRTEDTALYYCVKDGYTSSWHSDYHYGLDVWGQGTTVTVSS
VL: DIVMTQSPATLSLSPGDRATLSCRASQNVISNLAWYQQKPGQAPRLLIYTVSTRATGIPARFSGSGSGTDFTLTISSLQSEDFAVYYCQQYNNWPLTFGGGTKVEIK
notes: IgG
B2: ADI-15625 (antibody, V domains shown)
VH: EVQLVESGAEVRKPGASVQVSCKASGYTFTSYYMHWVRQAPGHGLEWMGMIYPSGGSTSYAQKFQGRVTMTRDTSTSTVYMELSSLRSEDAAVYYCARDRAGCSGGSCYYYGMDVWGQGTTVTVSS
VL: NFMLTQPPSVSVSPGQTASITCSGNKLGDKYACWYQQKPGQSPVLVISQDSKRPSGIPERFSGSNSGNTATLTISGTQAMDEADYYCQAWDSRTVVFGGGTKLTVL
notes: IgG; also called Antibody Number 190
B3: ADI-15631 (antibody, V domains shown)
VH: QVQLVESGGGLVQPGRSLRLSCAASGFTFDNYPMHWIRQAPGKGLEWVSGISWHSGSIGYADSVKGRFTISRDNAKNSLYLQMNSLRTEDTALYYCAKDAHYFDNSGHYYYGLDVWGQGTTVTVSS
VL: EIVLTQSPATLSVSPGERATLSCRASQNIINNLAWYQQKPGQAPRLLISGASTRATGIPARFSGSGSGTEFTLTITSLQSEDFAVYYCQQYNNWPLTFGGGTKVDIK
notes: IgG
B4: ADI-15624 (antibody, V domains shown)
VH: QVQLVQSGGGLVKAGGSLRLSCAASGFTISGFYMTWIRQAPGKGLEWVSSISGSSSYTNYADSVKGRFTISRDNAKNSLYLHMNSLRAEDTAVYYCARIRPDDSSGYPDYWGQGTLVTVSS
VL: QSVLTQPPSVSGAPGQRVTISCTGSSSNIGAGYDVHWCQQLPGTAPKLLIYGNNNRPSGVPDRFSGSKSGTSASLAITGLQAEDEADYYCQSYDSSLSGFVFGTGTKVTVL
notes: IgG; also called Antibody Number 189
B5: ADI-15638 (antibody, V domains shown)
VH: EVQLVESGGGLVKPGGSLRLSCAASGFTITSYGMNWVRQAPGKGLEWVSSISSSSSFIHYGDSVKGRFTISRDNAKNSLYLQMNSLRAGDTAVYYCVRDSGHQDYRGDYWGQGTLVTVSS
VL: B4 VL with L4V, T19S, C38Y, G52T, T78N, S95R, F100W, T104G, V108L
notes: IgG
B6: ADI-15649 (antibody, V domains shown)
VH: EVQLVESGGGLVKPGGSLRLSCAAPGFTIRSYTMYWVRQAPGKGLEWVASISSSSSYIHYGDSVKGRFTIARDNAKNSLYLQMNSLRAEDTAVYYCVRDHCTGGSCYLNGMDVWGQGTTVTVSS
VL: B4 VL with S2P, S25T, C38Y, F100S, T104G, V108L
notes: IgG
B7: ADI-15620 (antibody, V domains shown)
VH: QVQLVQSGAEVKKPGASVKVSCKASGYTFTSYDINWVRQATGHGLEWMGWMSPNSGYTGYAQKFQGRVTMSRNTSTGTAYMELSSLRSEDTAVYYCAREARDLRVGATNFDYWGQGTLVTVSS
VL: QPVLTQPPSVSVSPGQTASITCSGDKLGDKYISWYQQRPGQSPVMVIYQDSKGPSGIPERFSGSNSGNTATLTISGTQAMDEADYYCQAWDSSIDVVFGGGTKLTVL
notes: IgG
B8: ADI-15656 (antibody, V domains shown)
VH: QVQLVQSGAEVKKPGASVKVSCKASGYTFTDYYMHWVRQAPGQGLEWVGWINPNSGSTNYAQKFQGRVTVTRDTSISTAYMDLSRLRSDDTAVYYCASRSWDHDAFDIWGQGTMVTVSS
VL: QSVLTQPPSVSGAPGQRVTISCTGSSSNIGAGYDVHWYQQLPGRAPKLLIFGNSNRPSGVPDRFSGSKSGTSASLAITGLQPEDEADYYCHCYDSRLSVVFGGGTKLTVL
notes: IgG; also called Antibody Number 220
B9: ADI-15583 (antibody, V domains shown)
VH: QVQLVQSGAEVKKPGESLKISCKTSGYKFTNYWIGWVRQMPGKGLEWMGIIYPGDSDARYSPSFQGQVTFSADKSISTAYLQWSSLKASDTAMYYCARQDNSGWADFFPFDYWGQGTLVTVSS
VL: ETTLTQSPGTLSLSPGERATLSCRASHSFSSSYLAWYQQKPGQAPRLLIYAASNRATGIPDRFSGSGSGTDFTLTISRLEPEDFAVYFCQQYDSSPWTFGQGTKVEIK
notes: IgG
B10: ADI-15643 (antibody, V domains shown)
VH: B9 VH with K28R, Q82H, N101D
VL: B9 VL with T2I, T3V, S32T, V105L
notes: IgG
B11: ADI-15564 (antibody, V domains shown)
VH: QVQLVQSGAEVKKPGSSVKVSCKASGDTFNSYSISWVRQAPGQGLEWMGGILPMFGSSDYAQKFQGRLTITADESTRTAYMELNSLTSEDTAIYYCARDNYYVWTGRYPEFDFWGQGTLVTVSS
VL: EIVLTQSPGTLSLSPGDEATLSCRASQSVTSNYLAWYQQRPGQAPRLLISGASRRATAVPDRFSGSGSGTDFTLTISRLEPEDFAVYYCQQYGSTPITFGQGTRLEIK
notes: IgG
B12: ADI-15621 (antibody, V domains shown)
VH: QVQLVQSGPEMKKPGSSVKVSCKPSGGTFSSYSVSWVRQAPGQGLEWMGGIIPIFGSSDYAQKFQGRLTITEDESTKTSYMQLNNLTSDDTAIYFCARDNYYVWTGHYPEFDFWGQGTLVTVSS
VL: ETTLTQSPGTLSLSLGETATLSCRASQSVRSDYLAWYQQKPGQAPRLLISGASNRATAIPERFTGSGSGTDFTLTISSLEPADFAVYYCQQYGSTPITFGQGTRLEIK
notes: IgG; also called Antibody Number 186
B13: ADI-15622 (antibody, V domains shown)
VH: QVQLQESGGGLVQPGGSLRLSCSASGFTFSNYGMSWVRQAPGKGLEWVSGIGVSDGSTHYADSVKGRFIISRDNSKNMLSLQMSSLGVDDTAVYYCARIVIVGVLRFQEWLSSDGMDVWGQGTTVTVSS
VL: DIVMTQTPSSVSASVGDRVTITCRASQAISGGLAWYQQKAGKAPKLLIYAASNLPSGVPSRFSGSGSGTDFTLTISSLQPEDFATYYCQQANSFPFTFGQGTRLEIK
notes: IgG; also called Antibody Number 187
B14: ADI-15559 (antibody, V domains shown)
VH: QVQLVQSGAEVKKPGSSVKVSCKASGGSLSTYGIHWVRQAPGQGLEWVGGVMTVYGKTTYGQNFQGRVTIAVDRSTNTAYMELSSLTSDDTGTYYCATDSYYVWTGSYPPPFDLWGQGTLVTVSS
VL: EIVLTQTPGTQSLSPGQSATLSCRASHSVGNDYLAWYQQKPGQSPRLLIHGAYRRDSGIPDRFIGSGSGTDFTLTIDSLEPDDCAVYYCQQYGSWPLTFGGGTKVDIK
notes: IgG; also called Antibody Number 130
B15: ADI-15637 (antibody, V domains shown)
VH: QVQLVQSGAEVTKPGASVRVSCKFSAYTLSALSIHWVRQAPGKGLEWMGAFDPEDGEPIYSQHFQGRVTMTEDTSTQTAYMELNSLRSEDTAVYYCSSVGPAGWFDPWGQGTLVTVSS
VL: DIRLTQSPSSLSASVGDRVSITCRASQSISSYLHWYQQKPGKAPKLLIYAASSLQSGVPSRFSGSGSGSDFTLTISSLQPEDFATYYCHQSYIPPFTFGPGTKLEIK
notes: IgG; also called Antibody Number 202
B16: ADI-15655 (antibody, V domains shown)
VH: EVQLVESGGGVVQPGRSLRLSCAASGFTFSSYAMHWVRQAPGKGLEWVAVISYDEGNEYYADSVKGRFTISRANSKNTIYLQMNSLRAEDTAVYYCARDYIHGDYGLDVWGLGTTVTVSS
VL: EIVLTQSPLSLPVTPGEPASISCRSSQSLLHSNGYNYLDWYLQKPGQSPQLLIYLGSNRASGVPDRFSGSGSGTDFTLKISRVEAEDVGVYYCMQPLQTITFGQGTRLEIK
notes: IgG
B17: ADI-15642 (antibody, V domains shown)
VH: EVQLVESGGGLIQPGGSLRLSCAASGFTVSSKYMSWVRQAPGKGLEWVSIIYSGGSTYHADSVKGRFTISRDNSKNTLYLQMNSLRAEDTAVYYCARDDYDFWSGNGPPEMAVWGQGTTVTVSS
VL: DIRMTQSPSSLSASVGDRVTITCRASQGISNYLAWYQQKPGKVPKLLIYAASTLQSGVPSRFSGSGSETDFTLTISSLQPEDVATYYCQKYNSVPLTFGQGTKVEIK
notes: IgG; also called Antibody Number 206
B18: ADI-15650 (antibody, V domains shown)
VH: B17 VH with H59Y
VL: B17 VL with I2M, M4L, K39R, K45Q, A50T, N92D
notes: IgG; also called Antibody Number 214

For one test, the target named is T1, prefusion-stabilized RSV F ectodomain (DS-Cav1), subtype B (respiratory syncytial virus subtype B).
T1 construct: extracellular domain; also called Prefusion subtype B
The experiment in a line: BLI, IgG on sensor. A general note: BLI is a label-free optical method that tracks binding on a fibre tip over time.
Experimental: IgG binding to DS-Cav1 and FA FP was determined by BLI measurements using a FortéBio Octet HTX instrument (Pall Life Sciences). […] Data was analyzed using the ForteBio Data Analysis Software 7. The data was fit to a 1:1 binding model to calculate an association and dissociation rate, and KD was calculated using the ratio kd/kₐ.
As to B1, the dissociation constant Kd was 2.2 nM.

Turning to B2, binding was characterised by a dissociation constant (Kd) of 2.61 nM.

In turn, B3 returned a Kd of 0.552 nM.

B4 came in with a Kd of 0.407 nM.

B5 yielded a dissociation constant Kd of 0.402 nM.

B6: the Kd came out at 0.329 nM.

B7 yielded a Kd of 1.4 nM.

Turning to B8, the Kd was 6.13 nM.

In the case of B9, the Kd is 0.351 nM.

In the case of B10, the dissociation constant (Kd) worked out at 0.162 nM.

With B11, the Kd is 0.64 nM.

In turn, B12 registered a Kd of 0.555 nM.

B13 registered a dissociation constant (Kd) of 1.51 nM.

Turning to B14, the Kd turned out to be 0.98 nM.

Turning to B15, the Kd came to 6.13 nM.

Molecule B16 had a dissociation constant Kd of 8.58 nM.

In turn, B17 yielded a Kd of 2.81 nM.

As to B18, the Kd was determined as 3.52 nM.

The next test has as its target RSV F protein of subtype B strain 18537, on virus (respiratory syncytial virus subtype B …, UniProt P13843 26-574). The experiment in a line: cell-based or functional assay.
For the molecule B1, the “Neut IC50 (ug/ml) subtype B” value was determined as 0.047 µg/mL.

Consider B2, for which the “Neut IC50 (ug/ml) subtype B” value stood at 1.2 µg/mL.

With B3, the “Neut IC50 (ug/ml) subtype B” value was found to be 0.207 µg/mL.

With B4, the “Neut IC50 (ug/ml) subtype B” value was found to be 0.033 µg/mL.

With B5, the “Neut IC50 (ug/ml) subtype B” value is more than 10 µg/mL.

With B6, the “Neut IC50 (ug/ml) subtype B” value is 2.19 µg/mL.

For B7, the “Neut IC50 (ug/ml) subtype B” value was determined as 0.053 µg/mL.

In the case of B8, the “Neut IC50 (ug/ml) subtype B” value amounted to 0.021 µg/mL.

Take B9: the “Neut IC50 (ug/ml) subtype B” value was found to be 0.377 µg/mL.

Consider B10, for which the “Neut IC50 (ug/ml) subtype B” value was found to be 0.115 µg/mL.

Take B11: the “Neut IC50 (ug/ml) subtype B” value was 0.016 µg/mL.

As to B12, the “Neut IC50 (ug/ml) subtype B” value came out at 0.021 µg/mL.

For the molecule B13, the “Neut IC50 (ug/ml) subtype B” value was found to be 1.37 µg/mL.

In the case of B14, the “Neut IC50 (ug/ml) subtype B” value was 0.006 µg/mL.

With B15, the “Neut IC50 (ug/ml) subtype B” value came to 1.05 µg/mL.

As to B16, the “Neut IC50 (ug/ml) subtype B” value was more than 10 µg/mL.

For B17, the “Neut IC50 (ug/ml) subtype B” value worked out at 0.005 µg/mL.

As for B18, the “Neut IC50 (ug/ml) subtype B” value worked out at 0.016 µg/mL.

In the next test the target is RSV F protein of subtype A strain A2, on virus (respiratory syncytial virus subtype A …, UniProt P03420 26-574). The test is described as follows: cell-based or functional assay.
For B1, the “Neut IC50 (ug/ml) subtype A” value worked out at 0.014 µg/mL.

As to B2, the “Neut IC50 (ug/ml) subtype A” value was found to be 0.239 µg/mL.

Take B3: the “Neut IC50 (ug/ml) subtype A” value is 0.099 µg/mL.

B4: the “Neut IC50 (ug/ml) subtype A” value came out at 0.051 µg/mL.

In the case of B5, the “Neut IC50 (ug/ml) subtype A” value came out at 0.178 µg/mL.

In the case of B6, the “Neut IC50 (ug/ml) subtype A” value was more than 10 µg/mL.

For the molecule B7, the “Neut IC50 (ug/ml) subtype A” value turned out to be 0.077 µg/mL.

Regarding B8, the “Neut IC50 (ug/ml) subtype A” value is more than 10 µg/mL.

Turning to B9, the “Neut IC50 (ug/ml) subtype A” value is 0.443 µg/mL.

With B10, the “Neut IC50 (ug/ml) subtype A” value came out at 0.039 µg/mL.

As for B11, the “Neut IC50 (ug/ml) subtype A” value was 0.011 µg/mL.

As for B12, the “Neut IC50 (ug/ml) subtype A” value was found to be 0.018 µg/mL.

As to B13, the “Neut IC50 (ug/ml) subtype A” value came to 0.544 µg/mL.

With B14, the “Neut IC50 (ug/ml) subtype A” value is 0.008 µg/mL.

Regarding B15, the “Neut IC50 (ug/ml) subtype A” value was found to be 0.357 µg/mL.

In the case of B16, the “Neut IC50 (ug/ml) subtype A” value is more than 10 µg/mL.

For B17, the “Neut IC50 (ug/ml) subtype A” value was found to be 0.499 µg/mL.

B18: the “Neut IC50 (ug/ml) subtype A” value amounted to 8.3 µg/mL.

A word on the Kd: it is the constant that tells how readily two partners part at equilibrium.
